Test results taken from US20190185574A1 (COMMISSARIAT L NERGIE ATOMIQUE ET AUX NERGIES ALTERNATIVES, published 2019).
Numbering of substitutions follows the chain as printed. Values belong to the binder of their own block, whether it stands above or below them.

Legend:
[1] = target: T1, peptide C10 of the ETB-R Pep-scan membrane (human); experiment: Pep-scan peptide membrane, 1 µg/ml antibody, chemiluminescent detection
T1 construct: Residues are inferred as for C5, from the one-residue offset and C11 = 71-82
T1 peptide: EVPKGDRTAGSP

[2] = target: T2, peptide C6 of the ETB-R Pep-scan membrane (human); experiment: as above
T2 construct: Residues are inferred as for C5, from the one-residue offset and C11 = 71-82
T2 peptide: LAPAEVPKGDRT

[3] = target: T3, peptide C8 of the ETB-R Pep-scan membrane (human); experiment: as above
T3 construct: Residues are inferred as for C5, from the one-residue offset and C11 = 71-82
T3 peptide: PAEVPKGDRTAG

[4] = target: T4, peptide C9 of the ETB-R Pep-scan membrane (human); experiment: as above
T4 construct: Residues are inferred as for C5, from the one-residue offset and C11 = 71-82
T4 peptide: AEVPKGDRTAGS

[5] = target: T5, peptide C5 of the ETB-R Pep-scan membrane (human); experiment: as above
T5 construct: The peptides are 12-mers offset by one residue, C11 is stated to be 71-82, and C5-C10 share 70-76
T5 peptide: SLAPAEVPKGDR

[6] = target: T6, peptide C7 of the ETB-R Pep-scan membrane (human); experiment: as above
T6 construct: Residues are inferred as for C5, from the one-residue offset and C11 = 71-82
T6 peptide: APAEVPKGDRTA

[7] = target: T7, human endothelin receptor sub-type B (human, UniProt P24530 27-442); experiment: flow cytometry on CHO-ETBR cells pre-incubated 2 h at 37° C. with 300 nM endothelin 1 (receptor internalised)
T7 construct: no signal peptide limits are stated; also called ETB-R; ETBR
T7 sequence: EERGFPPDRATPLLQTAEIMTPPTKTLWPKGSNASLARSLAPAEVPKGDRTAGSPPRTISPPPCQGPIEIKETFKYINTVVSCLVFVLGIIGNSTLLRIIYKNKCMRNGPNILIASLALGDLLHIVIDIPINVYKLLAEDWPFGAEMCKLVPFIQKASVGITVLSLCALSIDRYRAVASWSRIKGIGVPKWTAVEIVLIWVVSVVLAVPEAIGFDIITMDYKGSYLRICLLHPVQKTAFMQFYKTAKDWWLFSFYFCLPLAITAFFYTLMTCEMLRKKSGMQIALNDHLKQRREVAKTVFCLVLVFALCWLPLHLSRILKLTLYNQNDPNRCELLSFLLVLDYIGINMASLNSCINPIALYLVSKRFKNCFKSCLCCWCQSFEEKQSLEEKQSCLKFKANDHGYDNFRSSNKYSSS

[8] = target: T7, human endothelin receptor sub-type B; experiment: flow cytometry on CHO-ETBR cells; apparent KD = concentration giving 50% of plateau MFI

- binding result [1]: binds
- binding result [2]: binds
- binding result [3]: binds
- binding result [4]: binds
- binding result [5]: binds
- binding result [6]: binds
B1: Rendomab-B49 (antibody, IgG1, V domains shown)
VH: QVQLQQPGAALVKPGASVKLSCKASGYTFISYWMLWVKQRPGRGLEWIGRIDPDSGGTKYNEKFKSKATLTVDKSSSTAYMQLSSLTSEDSAVYYCAREGDYAWFAYWGQGTLVPVSA
VL: DVLMTQTPLSLPVSLGDQASISCRSSQSIVHSNGNTYLEWYLQKPGQSPKLLIYKVSNRFSGVPDRFSGSGSGTDFTLKISRVEAEDLGVYYCFQGSHVPWTFGGGTKLEIK
notes: Murine monoclonal IgG1/kappa purified from ascites; also called hybridoma CNCM I-5084

- drop of binding after pre-incubation of the cells with 300 nM endothelin 1 [7]: > 50%
- Kd [8]: ~1 nM
B2: Rendomab-B41 (antibody, IgG1, V domains shown)
VH: QVQLQQPGAELVKPGASVKLSCKASGYTFTSYWMHWVKQRPGRGLEWIGRIDPDSGGTKYNEKFKSKATLTVDKPSNTANMQLSSLTSEDSAVYYCVREGWDAWFVYWGQGTLLTVSA
VL: DVLMTQTPLSLPVSLGDQASISCRSSQSIVHSNGNTYLEWYLQKPGQSPKLLIYKVFNRFSGVPDRFSGSGSGTDFTLKISRVEAEDLGVYYCFQGSHVPLTFGAGTKLELKR
notes: Murine monoclonal IgG1/kappa purified from ascites; also called hybridoma CNCM I-5104

- drop of binding after pre-incubation of the cells with 300 nM endothelin 1 [7]: > 50%
- Kd [8]: ~1 nM
B3: Rendomab-B36 (antibody, IgG3, V domains shown)
VH: QVQLQQPGAELVKPGASVKLSCKASGYTFTSYWIHWVNQRPGRGLEWIGRIDPNSGGTKYNEKFKSKATLTVDKTSSTAYMQFSSLTSEDSAVYYCAREGEFAWFAYWGQGTLVTVSA
VL: B2 VL with S28N, N35Y, F57S, A105S, L111I
notes: Murine monoclonal IgG3/kappa purified from ascites; also called hybridoma CNCM I-5103
